Laboratory results published in publication PMC10445733.
Blank lines part the entries; values can stand above or below the substance they belong to.

Tests used:
Test in all cases: GST pulldown (co-precipitation), anti-HA western blot band quantification
[1] = target: ESCRT-I complex: GST–TSG101 (m6) + Myc–VPS28 + HA–VPS37D (m12); details: input 1%, value = UMAD1 pulldown band intensity / input band intensity, parent: 0.3
[2] = target: ESCRT-I complex: GST–TSG101 (m6) + Myc–VPS28 + HA–VPS37C (m11); details: input 1%, value = UMAD1 pulldown band intensity / input band intensity, parent: 2.1
[3] = target: ESCRT-I complex: GST–TSG101 (m6) + Myc–VPS28 + HA–VPS37B (m10); details: input 1%, value = UMAD1 pulldown band intensity / input band intensity, parent: 2.4

response ([1]; 293T cells co-transfected with GST–TSG101, Myc–VPS28, HA–VPS37D and HA–UMAD1 M1): 0
response ([2]; 293T cells co-transfected with GST–TSG101, Myc–VPS28, HA–VPS37C and HA–UMAD1 M1): 0
response ([3]; 293T cells co-transfected with GST–TSG101, Myc–VPS28, HA–VPS37B and HA–UMAD1 M1): 0
Substance: HA–UMAD1 (from UniProt C9J7I0) V89A; P90A; F91A

response ([1]; 293T cells co-transfected with GST–TSG101, Myc–VPS28, HA–VPS37D and HA–UMAD1 M4): 0
response ([2]; 293T cells co-transfected with GST–TSG101, Myc–VPS28, HA–VPS37C and HA–UMAD1 M4): 0.4
response ([3]; 293T cells co-transfected with GST–TSG101, Myc–VPS28, HA–VPS37B and HA–UMAD1 M4): 0.2
Substance: HA–UMAD1 (from UniProt C9J7I0) E130A

response ([1]; 293T cells co-transfected with GST–TSG101, Myc–VPS28, HA–VPS37D and HA–UMAD1 M2): 0
response ([2]; 293T cells co-transfected with GST–TSG101, Myc–VPS28, HA–VPS37C and HA–UMAD1 M2): 0.6
response ([3]; 293T cells co-transfected with GST–TSG101, Myc–VPS28, HA–VPS37B and HA–UMAD1 M2): 0.4
Substance: HA–UMAD1 (from UniProt C9J7I0) Y125A

response ([1]; 293T cells co-transfected with GST–TSG101, Myc–VPS28, HA–VPS37D and HA–UMAD1 M3): 0
response ([2]; 293T cells co-transfected with GST–TSG101, Myc–VPS28, HA–VPS37C and HA–UMAD1 M3): 1.2
response ([3]; 293T cells co-transfected with GST–TSG101, Myc–VPS28, HA–VPS37B and HA–UMAD1 M3): 1.2
Substance: HA–UMAD1 (from UniProt C9J7I0) F127A
